The values that follow come from paper doi:10.1101/2022.01.06.475303.

The target in assay [1] is SARS-CoV-2 receptor binding domain (RBD), Wuhan-1 (SARS-CoV-2 Wuhan-Hu-1) (UniProt P0DTC2). Nature of the assay: SPR.
For assay [2], the target named is SARS-CoV-2 S protein (recombinant, His-tagged) (SARS-CoV-2 Wuhan-Hu-1 (MN908947)) (UniProt P0DTC2).

For CC6.30 IgG (antibody), in assay [1], the Kd was determined as 1.7 nM.

On to CC6.33 Fab, for which the fold higher binding affinity than for RBD in assay [2] was 10 fold.

For the substance CC6.33 IgG (antibody), the dissociation constant (Kd) in assay [1] amounted to 257 nM.

Take CC12.1 IgG (antibody): in assay [1], the Kd was 6 nM.
